These results are taken from US20120294822A1 (ALDERBIO, published 2012).

The experiment deals with T1, Homo sapiens CGRP-alpha (Calcitonin Gene Related Peptide alpha) (Homo sapiens, -NH2 at the C-terminal end as printed ('wherein the N-terminal phenylalanine is amidated'); 125I radiolabeled in the receptor binding assay of Example 6).
T1 construct: 37-residue synthetic peptide from American Peptides / Bachem; Coated directly on the plate in the ELISA of recombinant antibodies; also called CGRPα; human CGRPα
T1 peptide: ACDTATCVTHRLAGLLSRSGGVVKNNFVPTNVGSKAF
The experiment is described as follows: ELISA, CGRPα coated on plate, anti-human IgG Fc-HRP detection. Here is the method:
To characterize recombinant expressed antibodies for their ability to bind to human-CGRPα antibody-containing solutions were tested by ELISA. All incubations were done at room temperature. Briefly, Immulon IV plagtes (Thermo Scientific), were coated with a CGRPα containing solution (1 ut/mL in PBS) for 2 hours. CGRPα-coated plates were then washed three times in wash buffer (PBS, 0.05% Tween-20). The plates were then blocked using a blocking solution (PBS, 0.5% fish skin gelatin, 0.05% Tween-20) for approximately one hour. The blocking solution was then removed and the plates were then incubated with a dilution series of the antibody being tested for approximately one hour. At the end of this incubation, the plate was washed three times with wash buffer and further incubated with a secondary antibody containing solution (Peroxidase conjugated affinipure F(ab′)2 fragment goat anti-human IgG, Fc fragment specific (Jackson Immunoresearch) for approximately 45 minutes and washed three times. At that point a substrate solution (TMB peroxidase substrate, BioFx) and incubated for 3 to 5 minutes in the dark. The reaction was stopped by addition of a HCl containing solution (0.5M) and the plate was read at 450 nm in a plate-reader.

B1: Antibody Ab2 (antibody, human IgG1, kappa, N297A)
heavy: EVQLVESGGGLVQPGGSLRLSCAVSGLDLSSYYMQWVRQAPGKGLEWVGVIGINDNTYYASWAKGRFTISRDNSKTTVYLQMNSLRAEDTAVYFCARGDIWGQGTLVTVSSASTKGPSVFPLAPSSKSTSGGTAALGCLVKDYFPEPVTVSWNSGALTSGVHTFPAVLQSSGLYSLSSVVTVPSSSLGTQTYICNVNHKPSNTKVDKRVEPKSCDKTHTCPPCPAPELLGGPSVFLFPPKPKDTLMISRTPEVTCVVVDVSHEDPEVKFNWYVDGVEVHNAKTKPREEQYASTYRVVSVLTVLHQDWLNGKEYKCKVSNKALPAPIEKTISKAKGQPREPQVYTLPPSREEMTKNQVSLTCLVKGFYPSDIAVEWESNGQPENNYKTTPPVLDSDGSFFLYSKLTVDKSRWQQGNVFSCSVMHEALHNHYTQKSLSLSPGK
light: QVLTQSPSSLSASVGDRVTINCQASQSVYDNNYLAWYQQKPGKVPKQLIYSTSTLASGVPSRFSGSGSGTDFTLTISSLQPEDVATYYCLGSYDCSSGDCFVFGGGTKVEIKRTVAAPSVFIFPPSDEQLKSGTASVVCLLNNFYPREAKVQWKVDNALQSGNSQESVTEQDSKDSTYSLSSTLTLSKADYEKHKVYACEVTHQGLSSPVTKSFNRGEC
notes: Humanized full-length anti-CGRP antibody
For B1, the binding result was “binds”.

B2: Antibody Ab5 (antibody, human IgG1, kappa, N297A)
heavy: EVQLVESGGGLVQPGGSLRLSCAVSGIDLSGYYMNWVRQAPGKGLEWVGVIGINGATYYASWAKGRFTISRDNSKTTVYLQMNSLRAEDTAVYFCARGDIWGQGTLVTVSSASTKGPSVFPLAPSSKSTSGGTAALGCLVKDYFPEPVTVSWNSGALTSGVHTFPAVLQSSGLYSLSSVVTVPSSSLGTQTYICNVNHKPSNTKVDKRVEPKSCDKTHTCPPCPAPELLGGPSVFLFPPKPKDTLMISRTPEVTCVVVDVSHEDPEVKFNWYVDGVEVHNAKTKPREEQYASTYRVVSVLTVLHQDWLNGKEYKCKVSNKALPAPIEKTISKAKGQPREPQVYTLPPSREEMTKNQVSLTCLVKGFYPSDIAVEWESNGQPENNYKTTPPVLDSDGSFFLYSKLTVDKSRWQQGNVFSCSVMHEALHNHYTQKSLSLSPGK
light: QVLTQSPSSLSASVGDRVTINCQASQSVYHNTYLAWYQQKPGKVPKQLIYDASTLASGVPSRFSGSGSGTDFTLTISSLQPEDVATYYCLGSYDCTNGDCFVFGGGTKVEIKRTVAAPSVFIFPPSDEQLKSGTASVVCLLNNFYPREAKVQWKVDNALQSGNSQESVTEQDSKDSTYSLSSTLTLSKADYEKHKVYACEVTHQGLSSPVTKSFNRGEC
Consider B2, for which the binding result was “binds”.

B3: Antibody Ab8 (antibody, human IgG1, kappa, N297A, V domains shown)
VH: EVQLVESGGGLVQPGGSLRLSCAVSGIDLSNHYMQWVRQAPGKGLEWVGVVGINGRTYYASWAKGRFTISRDNSKTTVYLQMNSLRAEDTAVYFCARGDIWGQGTLVTVSS
VL: QVLTQSPSSLSASVGDRVTINCQASQSVYNYNYLAWYQQKPGKVPKQLIYSTSTLASGVPSRFSGSGSGTDFTLTISSLQPEDVATYYCLGSYDCSTGDCFVFGGGTKVEIKR
notes: as for B1
For the molecule B3, the binding result is “binds”.

B4: Antibody Ab6 (antibody, human IgG1, kappa, N297A)
heavy: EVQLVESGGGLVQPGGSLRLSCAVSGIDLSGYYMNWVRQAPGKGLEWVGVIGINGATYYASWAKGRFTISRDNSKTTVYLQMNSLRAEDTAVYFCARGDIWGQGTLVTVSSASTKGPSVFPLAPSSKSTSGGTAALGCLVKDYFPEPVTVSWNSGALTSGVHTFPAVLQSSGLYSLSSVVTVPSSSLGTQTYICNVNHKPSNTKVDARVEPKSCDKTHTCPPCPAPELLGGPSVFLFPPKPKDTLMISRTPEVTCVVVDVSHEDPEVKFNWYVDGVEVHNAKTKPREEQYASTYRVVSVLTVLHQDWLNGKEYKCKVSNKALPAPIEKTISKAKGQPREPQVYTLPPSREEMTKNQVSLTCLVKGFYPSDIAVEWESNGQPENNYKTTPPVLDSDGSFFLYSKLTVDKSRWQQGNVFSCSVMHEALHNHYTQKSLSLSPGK
light: QVLTQSPSSLSASVGDRVTINCQASQSVYHNTYLAWYQQKPGKVPKQLIYDASTLASGVPSRFSGSGSGTDFTLTISSLQPEDVATYYCLGSYDCTNGDCFVFGGGTKVEIKRTVAAPSVFIFPPSDEQLKSGTASVVCLLNNFYPREAKVQWKVDNALQSGNSQESVTEQDSKDSTYSLSSTLTLSKADYEKHKVYACEVTHQGLSSPVTKSFNRGEC
notes: as for B1
As to B4, the binding result was “binds”.

B5: Antibody Ab12 (antibody, human IgG1, kappa, N297A, V domains shown)
VH: EVQLVESGGGLVQPGGSLRLSCAVSGIDVTNYYMQWVRQAPGKGLEWVGVIGVNGKRYYASWAKGRFTISRDNSKTTVYLQMNSLRAEDTAVYFCARGDIWGQGTLVTVSS
VL: QVLTQSPSSLSASVGDRVTINCRASQSVYYNNYLAWYQQKPGKVPKQLIYSTSTLASGVPSRFSGSGSGTDFTLTISSLQPEDVATYYCLGSYDCSNGDCFVFGGGTKVEIKR
notes: as for B1
With B5, the binding result is “binds”.

B6: Antibody Ab3 (antibody, human IgG1, kappa, N297A)
heavy: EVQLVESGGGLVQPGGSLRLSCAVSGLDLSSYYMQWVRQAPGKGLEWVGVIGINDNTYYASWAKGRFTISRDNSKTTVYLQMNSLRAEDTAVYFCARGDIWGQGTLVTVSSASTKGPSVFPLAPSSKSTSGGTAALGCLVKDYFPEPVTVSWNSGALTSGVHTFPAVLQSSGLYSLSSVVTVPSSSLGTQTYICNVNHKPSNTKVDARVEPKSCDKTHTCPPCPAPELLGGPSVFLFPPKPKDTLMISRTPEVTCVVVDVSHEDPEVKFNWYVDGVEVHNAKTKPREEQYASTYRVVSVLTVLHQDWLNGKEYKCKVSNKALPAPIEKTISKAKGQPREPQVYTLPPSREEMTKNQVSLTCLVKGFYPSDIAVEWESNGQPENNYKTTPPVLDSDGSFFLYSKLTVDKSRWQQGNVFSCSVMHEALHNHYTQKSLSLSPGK
light: QVLTQSPSSLSASVGDRVTINCQASQSVYDNNYLAWYQQKPGKVPKQLIYSTSTLASGVPSRFSGSGSGTDFTLTISSLQPEDVATYYCLGSYDCSSGDCFVFGGGTKVEIKRTVAAPSVFIFPPSDEQLKSGTASVVCLLNNFYPREAKVQWKVDNALQSGNSQESVTEQDSKDSTYSLSSTLTLSKADYEKHKVYACEVTHQGLSSPVTKSFNRGEC
Regarding B6, the binding result was “binds”.

B7: Antibody Ab10 (antibody, human IgG1, kappa, N297A)
heavy: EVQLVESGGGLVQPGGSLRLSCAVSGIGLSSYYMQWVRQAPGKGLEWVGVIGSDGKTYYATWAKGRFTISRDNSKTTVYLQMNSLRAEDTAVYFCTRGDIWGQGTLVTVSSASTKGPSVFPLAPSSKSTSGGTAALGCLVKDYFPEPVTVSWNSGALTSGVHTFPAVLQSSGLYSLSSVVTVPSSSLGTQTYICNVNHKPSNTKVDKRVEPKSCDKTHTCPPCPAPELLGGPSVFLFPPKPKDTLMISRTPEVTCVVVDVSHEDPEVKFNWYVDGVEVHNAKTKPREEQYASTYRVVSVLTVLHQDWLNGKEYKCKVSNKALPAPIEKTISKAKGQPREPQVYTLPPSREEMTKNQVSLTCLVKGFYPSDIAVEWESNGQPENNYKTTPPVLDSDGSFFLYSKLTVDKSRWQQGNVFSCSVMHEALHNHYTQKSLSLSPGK
light: QVLTQSPSSLSASVGDRVTINCQASQNVYNNNYLAWYQQKPGKVPKQLIYSTSTLASGVPSRFSGSGSGTDFTLTISSLQPEDVATYYCLGSYDCSRGDCFVFGGGTKVEIKRTVAAPSVFIFPPSDEQLKSGTASVVCLLNNFYPREAKVQWKVDNALQSGNSQESVTEQDSKDSTYSLSSTLTLSKADYEKHKVYACEVTHQGLSSPVTKSFNRGEC
notes: as for B1
Turning to B7, the binding result is recorded as “binds”.

B8: Antibody Ab14 (antibody, human IgG1, kappa, N297A)
heavy: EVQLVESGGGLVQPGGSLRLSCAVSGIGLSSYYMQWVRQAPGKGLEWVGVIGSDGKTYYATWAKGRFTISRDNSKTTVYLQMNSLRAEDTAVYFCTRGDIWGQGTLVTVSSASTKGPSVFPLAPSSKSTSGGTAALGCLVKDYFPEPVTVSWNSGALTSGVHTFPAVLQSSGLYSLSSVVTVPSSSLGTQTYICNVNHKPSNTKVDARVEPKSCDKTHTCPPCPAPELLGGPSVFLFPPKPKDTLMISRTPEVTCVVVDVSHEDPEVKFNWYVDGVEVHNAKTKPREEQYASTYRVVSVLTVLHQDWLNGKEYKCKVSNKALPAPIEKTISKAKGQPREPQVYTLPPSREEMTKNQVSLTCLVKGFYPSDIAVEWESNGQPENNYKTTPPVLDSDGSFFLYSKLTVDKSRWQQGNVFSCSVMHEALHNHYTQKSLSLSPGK
light: QVLTQSPSSLSASVGDRVTINCQASQNVYNNNYLAWYQQKPGKVPKQLIYSTSTLASGVPSRFSGSGSGTDFTLTISSLQPEDVATYYCLGSYDCSRGDCFVFGGGTKVEIKRTVAAPSVFIFPPSDEQLKSGTASVVCLLNNFYPREAKVQWKVDNALQSGNSQESVTEQDSKDSTYSLSSTLTLSKADYEKHKVYACEVTHQGLSSPVTKSFNRGEC
notes: as for B1
For B8, the binding result is given as “binds”.

B9: Antibody Ab1 (antibody, human IgG1, kappa, N297A, V domains shown)
VH: QSLEESGGRLVTPGTPLTLTCTVSGLDLSSYYMQWVRQAPGKGLEWIGVIGINDNTYYASWAKGRFTISRASSTTVDLKMTSLTTEDTATYFCARGDIWGPGTLVTVSS
VL: QVLTQTASPVSAAVGSTVTINCQASQSVYDNNYLAWYQQKPGQPPKQLIYSTSTLASGVSSRFKGSGSGTQFTLTISDLECADAATYYCLGSYDCSSGDCFVFGGGTEVVVKR
notes: Chimeric (rabbit variable, human gamma-1/kappa constant) full-length anti-CGRP antibody
For the molecule B9, the binding result was “binds”.

B10: Antibody Ab7 (antibody, human IgG1, kappa, N297A, V domains shown)
VH: QEQLKESGGRLVTPGTSLTLTCTVSGIDLSNHYMQWVRQAPGKGLEWIGVVGINGRTYYASWAKGRFTISRTSSTTVDLKMTRLTTEDTATYFCARGDIWGPGTLVTVSS
VL: QVLTQTASPVSAAVGSTVTINCQASQSVYNYNYLAWYQQKPGQPPKQLIYSTSTLASGVSSRFKGSGSGTQFTLTISDVQCDDAATYYCLGSYDCSTGDCFVFGGGTEVVVKR
notes: Chimeric full-length anti-CGRP antibody
In the case of B10, the binding result was “binds”.

B11: Antibody Ab9 (antibody, human IgG1, kappa, N297A, V domains shown)
VH: QSLEESGGRLVTPGTPLTLTCTVSGIGLSSYYMQWVRQSPGRGLEWIGVIGSDGKTYYATWAKGRFTISKTSSTTVDLRMASLTTEDTATYFCTRGDIWGPGTLVTVSS
VL: QVLTQTPSPVSAAVGSTVTINCQASQNVYNNNYLAWYQQKPGQPPKQLIYSTSTLASGVSSRFRGSGSGTQFTLTISDVQCDDAATYYCLGSYDCSRGDCFVFGGGTEVVVKR
notes: as for B10
With B11, the binding result is on record as “binds”.

B12: Antibody Ab4 (antibody, human IgG1, kappa, N297A, V domains shown)
VH: QSLEESGGRLVTPGTPLTLTCSVSGIDLSGYYMNWVRQAPGKGLEWIGVIGINGATYYASWAKGRFTISKTSSTTVDLKMTSLTTEDTATYFCARGDIWGPGTLVTVSS
VL: QVLTQTPSPVSAAVGSTVTINCQASQSVYHNTYLAWYQQKPGQPPKQLIYDASTLASGVPSRFSGSGSGTQFTLTISGVQCNDAAAYYCLGSYDCTNGDCFVFGGGTEVVVKR
In the case of B12, the binding result was “binds”.

B13: Antibody Ab11 (antibody, human IgG1, kappa, N297A, V domains shown)
VH: QSLEESGGRLVTPGGSLTLTCTVSGIDVTNYYMQWVRQAPGKGLEWIGVIGVNGKRYYASWAKGRFTISKTSSTTVDLKMTSLTTEDTATYFCARGDIWGPGTLVTVSS
VL: QVLTQTASPVSPAVGSTVTINCRASQSVYYNNYLAWYQQKPGQPPKQLIYSTSTLASGVSSRFKGSGSGTQFTLTISDVQCDDAATYYCLGSYDCSNGDCFVFGGGTEVVVKR
notes: Chimeric full-length anti-CGRP antibody; also called Abll
Consider B13, for which the binding result was “binds”.
